Measured values from US20220144895A1, “DE NOVO DESIGN OF TUNABLE PH-DRIVEN CONFORMATIONAL SWITCHES” (University of Washington, priority 2019, published 2022).
Where a chain is given by its changes, count along the chain named. Names and notes keep the numbering of the source. “Also recorded” adds a separate entry of the source.

Columns and labels:
U2-OS cells = test: Colocalization of +36GFP fusions with lysosomal membrane (confocal microscopy); assay type: cell-based; settings: 5 μM, 1 hr
Protocol: U-2 OS (ATCC) cells were cultured in DMEM supplemented with 10% (v/v) inactivated FBS (Corning), 2 mM glutamine, penicillin (100 IU/mL), and streptomycin (100 μg/mL) at 37° C. and 5% CO2. The glass-bottom coverslip chambers were pre-coated with 500 μg/mL of Matrigel (Corning). Transfection of LAMP1-HaloTagTM was performed using Lonza Nucleofector system according to the manufacturer's specifications. After overnight of recovery and expression, the cells expressing LAMP1-HaloTagTM were labeled with 100 nM JF646-HTL for 30 minutes and washed three times with pre-warmed DMEM medium. The final concentration of 5 μM+36GFP fusion proteins was incubated with the LAMP1-HaloTagTM expressing U-2 OS cells on a pre-coated coverslip for 1 hr. Cells were fixed with 4% paraformaldehyde for 20 min at room temperature (RT) and quenched/rinsed with PBS supplemented with 30 mM glycine. Then, the coverslips were mounted on FluoroSaveTM (Millipore). For pH measurement of the lysosome, LysoSensorTM Yellow/Blue DND-160 was incubated at 1 mg/mL overnight and washed twice prior to imaging (54). The final concentration of 5 μM protein was incubated with the LAMP1-HaloTag expressing U2-OS cells that were loaded with 1 mg/mL LysoSensorTM Yellow/Blue DND-160 for 1 hr. In separate chambers, LysoSensorTM Yellow/Blue DND-160 loaded cells were incubated with bafilomycin A1 (1 μM) and chloroquine (50 μM) for 1 hr as a control. For fixed cell confocal microscopy, a customized Nikon TiE inverted scope outfitted with a Yokogawa spinning-disk scan head (#CSU-X1) along with an Andor iXonTM EM-CCD camera (DU-897) with […] exposure time was used to collect 3D images using an SR Apo TIRF 100×1.49 oil-immersion objective. […] coefficients were calculated in 3D with JF646 signal (LAMP-HaloTag) and +36GFP signal (corresponding proteins) using Imaris software with thresholding. Zeiss 880 equipped with AiryScanTM was also used to obtain high resolution images using a Plan-Apochromatic 63×/1.4 oil DIC objective.

[1] = Fluorescence dequenching liposome leakage (liposome disruption) assay; assay type: biochemical; settings: for pH-dependent liposome disruption: SRB leakage
Summary of the method: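 Extruded ~120–130 nm liposomes (DOPC or 3:1 DOPC:POPS, ± 25% cholesterol) loaded with 25 mM sulforhodamine B in Tris buffer pH 8.0 were acidified to target pH for 20 min at 24 °C. Leakage was read as SRB dequenching (ex/em 565/586) and normalised to pre-acidification and 1% Triton X-100 signals.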

[2] = Circular dichroism: GdmCl chemical denaturation and temperature melts; settings: for folding stability by GdmCl denaturation: CD at 222 nm, PBS pH 7.4 or Na2PO4-Citrate at lower pH
Source text: For low-pH experiments involving circular dichroism (CD), small-angle X-ray scattering (SAXS), and size exclusion chromatography (SEC), Na2PO4-Citrate buffer was used to ensure that a single buffer system could be used that was stable over the entire pH range to be tested. Buffers were made using established ratios of stock solutions of 0.2 M Na2PO4 and 0.1 M Citrate; final pH was adjusted using hydrochloric acid (HCl) or sodium hydroxide (NaOH) if needed.
CD wavelength scans (260 to 195 nm) and temperature melts (25 to 95° C.) were measured using a JASCO™ J-1500 or an AVIV™ model 420 CD spectrometer. Temperature melts monitored absorption signal at 222 nm and were carried out at a heating rate of 4° C./min; protein samples were at 0.25 mg/mL in either phosphate buffered saline (PBS) pH 7.4 or Na2PO4-Citrate at indicated pH values (see Buffers systems for varying pH). Guanidinium chloride (GdmCl) titrations were all performed on an AVIV 420 spectrometer with an automated titration apparatus using either PBS pH 7.4 or Na2PO4-Citrate buffers at indicated pH at room temperature, monitoring helical signal at 222 nm, using a protein concentration of 0.025 mg/mL in a 1 cm cuvette with stir bar. Each titration consisted of at least 30 evenly distributed concentration points with one minute mixing time for each step. Titrant solution consisted of the same concentration of protein in the same buffer system plus GdmCl; GdmCl concentration of starting solutions was determined by reactive index.

[3] = Native mass spectrometry of pH-induced changes in oligomeric state; assay type: physicochemical; settings: for pH response of oligomeric state (pH-induced disassembly): pH ~7 to ~3
Summary of the method: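 Protein in 200 mM ammonium acetate/50 mM triethylammonium acetate, acid-adjusted to each target pH, was held 30 min on ice and sprayed by nESI at 5 μM monomer or 1.67 μM trimer. Oligomer fractions came from integrated charge-state series, then fitted by nonlinear least squares.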

[4] = 2.5 μM protein with respect to monomer

B1: pRO-2: designed pH-responsive homotrimer, SEQ ID NO: 1-2 (protein)
chain 1: MGSHHHHHHGSGSENLYFQGSEYEIRKALEELKAATAELKRATASLRAITEELKKNPSEDALVEHNRAIVEHNAIIVEHNRIIAAVLELIVRAIK
chain 2: SEYEIRKALEELKAATAELKRATASLRAITEELKKNPSEDALVEHNRAIVEHNAIIVEHNRIIAAVLELIVRAIK
U2-OS cells
  colocalization with lysosomal membranes: colocalize with lysosomal membranes and are not degraded
[1]; [4]
  highest pH with liposome disruption: ≤ 6 pH
  pH of maximal liposome disruption activity: ~5 pH
  pH-dependent liposome disruption: disrupts liposomes in a pH-dependent manner
[1]; pH 5.0, DOPC, POPS, cholesterol mixtures
  disruption of liposomes with more native-like lipid compositions: caused pH-dependent disruption of liposomes with more native-like lipid compositions
[2]; 10 mM EDTA, PBS pH 7.4
  effect of EDTA on helical fold or thermostability: no effect on the helical fold or thermostability
[2]
  folding stability by GdmCl denaturation: decreased folding stability at low pH; also recorded: strongly pH dependent
[3]; native MS
  pH response of oligomeric state (pH-induced disassembly): predominantly monomeric at pH 4
[3]; pH lowered with acetic acid, then raised by ammonia or buffer exchange
  reversibility of disassembly: re-association of monomers into trimer

B2: pRO-2 I56V: pRO-2 mutant, SEQ ID NO: 17-18 (protein)
chain 1: B1 chain 1 with I76V
chain 2: GSEYEIRKALEELKAATAELKRATASLRAITEELKKNPSEDALVEHNRAIVEHNAIVVEHNRIIAAVLELIVRAIK
U2-OS cells
  colocalization with lysosomal membranes: clearly localized within lysosomes
U2-OS cells; listed as I56V
  colocalization with lysosomal membranes: colocalize with lysosomal membranes and are not degraded; also recorded: most strongly colocalized with the lysosomal membrane
[1]; [4]
  pH-dependent liposome disruption: increased liposome permeabilization activity; also recorded: increased membrane permeabilization activity
[2]
  folding stability by GdmCl denaturation: decreases stability
[3]; native MS at different pH values
  cooperativity of the pH-induced transition: Neither of the mutations substantially affect the cooperativity
[3]; native MS, evaluated from pH 7 down to pH 3
  pH transition point of disassembly (pH set point, pH0): approximately 5.8 pH
[3]; native MS
  pH response of oligomeric state (pH-induced disassembly): most pH-sensitive
